Data reported in patent US12578329B2, “Reagent kit containing polypeptide for use in detection of intermolecular interactions” (SHIMADZU CORPORATION, priority 2021, dated 2026).
“Also recorded” adds a separate entry of the source.

B1: NanoLuc®: known luciferase, about 19 kDa; SEQ ID NO: 73 (protein)
chain: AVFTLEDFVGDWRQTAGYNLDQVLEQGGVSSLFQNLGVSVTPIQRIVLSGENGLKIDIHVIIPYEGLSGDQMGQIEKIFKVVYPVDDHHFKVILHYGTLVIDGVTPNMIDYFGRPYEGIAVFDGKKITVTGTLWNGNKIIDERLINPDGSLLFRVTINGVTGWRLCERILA
modifications: oplophorus gracilirostris
B2: TurboLuc™: known luciferase, about 16 kDa; SEQ ID NO: 74 (protein, listed as Metrisia longa)
chain: MEAEAERGKLPGKKLPLEVLIELEANARKAGCTRGCLICLSKIKCTAKMKKYIPGRCADYGGDKKTGQAGIVGAIVDIPEISGFKEMEPMEQFIAQVDRCADCTTGCLKGLANVKCSDLLKKWLPGRCATFADKIQSEVDNIKGLAGD
B3: picALuc30: SEQ ID NO: 51; amino acids 54 to 175 of ALuc30 wt, without the N terminus and C terminus; 13 kDa luciferase (protein)
chain: KLPGKKLPLEVLKELEANAQKAGCTRGCLICLSHIKCTAKMKKWLPGRCESWEGDKETGQGGIGEAIVDIPEIPGFKELAPMEQFIAQVDLCADCTTGCLKGLANVKCSALLKKWLPSRCAG
modifications: picALuc30
notes: amino acids 54 to 175 of ALuc30 wt, without the N terminus and C terminus; 13 kDa luciferase

Legend:
[1] = Emission value of secretion-expressed luciferase in COS-7 culture medium, coelenterazine substrate; type: biochemical; conditions: for emission values (rank order): Experiment 5
Protocol: (§1) • (1) COS-7 cells derived from the kidney of African green monkey were inoculated in a 24-well dish, and on the next day, subconfluency was attained. • (2) 25 μL of Opti-MEM (Thermo Fisher Scientific™), 400 ng (2 μL) of the plasmid, and 1 μL of P3000 (Invitrogen™, Waltham, MA) were mixed. • (3) 25 μL of Opti-MEM and 1 μL of lipofectoamine 3000 (Invitrogen™) were mixed. • (4) (2) and (3) were mixed together, followed by incubation at room temperature for 5 minutes. • (5) The mixture was added to the medium of (1). • (6) 500 μL of Dulbecco's modified Eagle's medium was added, followed by culturing the cells at 37° C. for 1 day and then collecting the medium. The medium contained secretion-expressed luciferase. • (7) To 100 μL of the medium, coelenterazine was added as a substrate at a final concentration of 5 μM, followed by measuring the emission value by using Enspire multi-mode plate reader (PerkinElmer™, Waltham, MA).
By the same manner as in Experiment 2, the emission value was measured.
The emission value was measured in the same manner as in Experiment 2 except that the final concentration of coelenterazine was changed to 0.5 μM. […] The emission value was measured in the same manner as in Experiment 2 except that the final concentration of coelenterazine was changed to 5 μM.

[2] = Emission value of secretion-expressed luciferase in COS-7 culture medium, coelenterazine h substrate; type: biochemical; conditions: Experiment 5
Protocol: as §1
The emission value was measured in the same manner as in Experiment 2 except that coelenterazine h was used as a substrate in a final concentration of 5 μM. […] The emission value was measured in the same manner as in Experiment 2 except that coelenterazine h was used as a substrate in a final concentration of 25 μM.

[3] = Emission value of secretion-expressed luciferase in COS-7 culture medium, furimazine substrate; type: biochemical; conditions: Experiment 5; furimazine in the concentration recommended by the manufacturer
Protocol: as §1
The emission value was measured in the same manner as in Experiment 2 except that furimazine, which was available from Promega™ as a NanoLuc® substrate, was used as a substrate in the concentration recommended by the manufacturer.

[4] = GLuc: when secretion expressed from cells; cited from earlier work
[5] = Stability of protein terminus: Western blot detection of Flag-tag and His-tag in culture supernatant; conditions: secretion-expressed luciferase in COS-7 culture supernatant; Western blotting
Description: In the same manner as in Experiment 2, the plasmid was transfected into COS-7 cells and culture supernatant was collected. Flag-tag added to the N terminus of each secretion-expressed luciferase and His-tag added to the C terminus thereof were detected by Western blotting (SDS-PAGE, Mini-PROTEAN TGX Gel StainFree 4-15% (Bio-Rad™, Hercules, CA)) (FIG. 17). The antibodies used were Anti 6×Histidine, Monoclonal Antibody (9C11), Peroxidase Conjugated (manufactured by FUJIFILM Wako Pure Chemical Corporation, 1:1000) and Monoclonal ANTI-FLAG (R) M2-Peroxidase (HRP) antibody produced in mouse, clone M2 (manufactured by Sigma-Aldrich™, St. Louis, MO, 1/1000), respectively, and detection was performed with Amesham Imager 680 (Cytiva™, Marlborough, MA).

[6] = Measurement of specific activity (enzyme concentrations adjusted by Western blot signal); type: biochemical
Protocol: The specific activities of NanoLuc®, ALuc30 wt, and picALuc30 were measured, with their enzyme concentrations adjusted based on the Western blot signal intensity obtained in Experiment 6.

[7] = Thermal stability of secretion-expressed picALuc30 (heat treatment, then emission value); type: physicochemical
Protocol: In the same manner as in Experiment 2, the plasmid was transfected into COS-7 cells and the medium was collected. The culture supernatant containing picALuc30 was incubated for 10 minutes at room temperature (25° C.), 40° C., 50° C., 60° C., 70° C., 80° C., or 90° C., and then the emission value was measured. […] (FIG. 22), indicating a sufficient level of practical utility.

[8] = Specific activity of picALuc30 expressed in Escherichia coli versus secretion-expressed by COS-7 cells; type: biochemical; conditions: concentrations adjusted by Western blotting
Protocol: • (1) A DNA sequence coding for picALuc30 was inserted into a pET32 vector to prepare a plasmid. Transformation was carried out into Escherichia coli SHuffle T7 express lysY (New England Biolab). • (2) Escherichia coli from (1) was inoculated into an LB plate (containing […] of ampicillin). • (3) Next day, one colony was taken out, and cultured with shaking overnight at 30° C. in a test tube containing 2 mL of LB medium (containing […] of ampicillin). • (4) 1 mL of (3) was added to 100 mL of LB medium (containing […] of ampicillin), followed by shaking culture at 30° C. in a 500-mL flask until the absorbance OD600 reached about 0.4. • (5) When the absorbance OD600 reached about 0.4, 40 μL of 1-M isopropyl-β-thiogalactopyranoside was added, followed by overnight culture at 16° C. • (6) The bacterial cells were collected, followed by purification of the protein using HisTALON Buffer Set and TALON Metal Affinity Resin (both from Takara Bio Inc.). From 100 mL of the medium, 1.7 mg of picALuc30 was obtained.

[9] = Thermal stability of picALuc30 purified from Escherichia coli; type: physicochemical; conditions: expressed in Escherichia coli

Molecule	emission values (rank order) ([1]; coelenterazine 0.5 μM)	emission values (rank order) ([1]; coelenterazine 5 μM)	emission values (rank order) ([2]; coelenterazine h 5 μM)	emission values (rank order) ([2]; coelenterazine h 25 μM)	emission value [3]	emission value (known) [4]	stability of protein termini (Flag-tag and His-tag detection) [5]	emission value ([1]; Experiment 2, coelenterazine 5 μM, medium of transfected COS-7 cells)	emission value compared with NanoLuc and TurboLuc ([1]; secretion-expressed, substrate coelenterazine or coelenterazine h in a high concentration (summary of Experiment 5))	maximum emission value ([6]; Experiment 7)	specific activity ([6]; coelenterazine or coelenterazine h as substrate)	activity remained ([7]; 10-minute incubation at 50° C.) [%]	activity remained ([7]; 10-minute incubation at 60° C.) [%]	activity remained ([7]; 10-minute incubation at 70° C.) [%]	specific activity, secretion expressed by COS-7 cells versus prepared in Escherichia coli [8]	activity after heat treatment ([9]; 10-minute incubation at 60° C.)	activity remained ([9]; 10-minute incubation at 70° C.) [%]	activity remained ([9]; 10-minute incubation at 80° C.) [%]
B1	NanoLuc®>>picALuc30>TurboLuc™>ALuc30 wt>GLuc	ALuc30 wt=picALuc30>NanoLuc®>TurboLuc™>GLuc	TurboLuc™=ALuc30 wt>>NanoLuc®>picALuc30>GLuc	picALuc30>>NanoLuc®=TurboLuc™=ALuc30 wt>>GLuc	high emission values; also recorded: the same as when coelenterazine or coelenterazine h was used	very high												
B2	NanoLuc®>>picALuc30>TurboLuc™>ALuc30 wt>GLuc	ALuc30 wt=picALuc30>NanoLuc®>TurboLuc™>GLuc	TurboLuc™=ALuc30 wt>>NanoLuc®>picALuc30>GLuc	picALuc30>>NanoLuc®=TurboLuc™=ALuc30 wt>>GLuc	high emission values	relatively high	N terminus was lost											
B3	NanoLuc®>>picALuc30>TurboLuc™>ALuc30 wt>GLuc	ALuc30 wt=picALuc30>NanoLuc®>TurboLuc™>GLuc	TurboLuc™=ALuc30 wt>>NanoLuc®>picALuc30>GLuc	picALuc30>>NanoLuc®=TurboLuc™=ALuc30 wt>>GLuc	low as compared to NanoLuc® and TurboLuc™		both termini remaining	the same as or higher than that of ALuc30 wt	equal to or higher than NanoLuc® and TurboLuc™	same maximum emission value as NanoLuc®	the same	≥ 80	≥ 80	≥ 50	approximately the same	lost little activity	≥ 90	≥ 80
